In the nanobody polyreactivity screen of Harvey et al. (2022):

test: yeast display, Sf9 membrane polyspecificity reagent, FACS + sequencing; frameworks hold sequencing errors
Method in brief: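 Galactose-induced (36–48 hours) yeast carrying a synthetic nanobody display library were exposed to 10% biotinylated, detergent-solubilized Sf9 membrane reagent at 4 °C for 1 hour. FACS followed streptavidin microbead enrichment, using low and high (top ~1%) gates for expression (anti-HA) and reagent binding (streptavidin). Colony PCR, MiSeq 2 × 250 sequencing and CDR-length filtering followed. Labels for polyreactivity reflect the gate of origin.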

Sequence	polyreactivity (PSR sort gate)
QDQLVESGGGLVQAGGSLLLSCAASGIIITGNAMVWYRQAPGKERELVAGITGSGGNTYYADCVKGRYTISRDNAKNTFYLQMNSLKPEDTGVYYCAARRHIFLLIIWSGRVDYWGQGTQVTVSS	low polyreactivity
QDQLVESGGGLVQAGGSLRISCAASGRIFRRNTMGRYRQAPGKERELVADINSSDGDTYYADSVKGRFTISRDNAKNTVYLQMNSLKPEDTAVYYCAADLSPLGEMDYWGQGTQVTVSS	low polyreactivity
QDQLVESGGGLVQAGGSLRLICAASGRTFITYSMGWYRQAPGKERELVAAISWNGGTTYYADSVKGRFTISRDNAKNTVYIQMNSLKPEVTAVYYCAGYRWYSAARMGYWGQGTQVTVSS	high polyreactivity
QDQLVESGGGLVQAGGSLRLICAASGSIFDFYTMGWYRQAPGKERELVAAITYSGGRTYYADSVKGRFTISRDNAKNTVYLQMNSLKPEDTAVYYCAASTGSSAYDDYWGQGTQVTVSS	high polyreactivity
QDQLVESGGGLVQAGGSLRLICAASGSIFSKKAMGLYRQAPGKERELVAAISASGASTYYADSVKGRFTISRDNEKNTVYLQMNSLKPEDTSVYYCNADVSGVSSYGLSYEFYYWGQGTQVTVSS	low polyreactivity
QDQLVESGGGLVQAGGSLRLSCAACGIMFGKYAMGWYREAPGKERELVAAITWSGGRTYYADSVTGRFTISRANAKNTVYLPMNSLKPEDTAVYYCAADVKYGYDWGQGTQVTVSS	high polyreactivity
QDQLVESGGGLVQAGGSLRLSCAASGFTFAENAMGWYRQATGKEGELVAAISGSGGSTYYADSVKGRFTISRDNAKNTVYLQMNSLKPEDTAVYYCAADKPRPQYTDDDYWGQGTQVTVSS	high polyreactivity
QDQLVESGGGLVQAGGSLRLSCAASGFTFARNGMGWYRQAPVKEREFVAAITRSGGRTYYADSVKGRFTISRDNAKNTVYLQMNSLKPQDTAVYYCAAATSYGKSEYDYWGQGTQVTVSS	high polyreactivity
QDQLVESGGGLVQAGGSLRLSCAASGFTFDRYAMGWYRQAPGKERELVAAITSSGGSTYYADSVKGRFTISRDNAKNTVYLQMNSLKPEDTAVYYCAVAYSSHTSYYSWGQSTQVTVSS	low polyreactivity
QDQLVESGGGLVQAGGSLRLSCAASGFTFGDNAMGWYRQAPGKERELVAAITSSGSTNYADSVKGRFTISRDNAKNTVYLQMNSLKPEDTAVYYCNAEDSVDAPVYKDLGSEYDSWGQGTQVTVSS	low polyreactivity
QDQLVESGGGLVQAGGSLRLSCAASGFTFGYYAMGWYRQAPGKERELVAAISSGSSTYYADSVKGRFTISRDNAKNTVDLQMISLTPEDTAVFYCAATGDNNTPSGYDYWGQGTQVTVSS	high polyreactivity
QDQLVESGGGLVQAGGSLRLSCAASGFTFNANAMGWYRQAPGKERELVAAITRSGGRTYYADSVKGRFTISRDNAKNTVYLQMNSLKPEDTAVYYCANLVTNGRYDSWGQGTQVTVSS	high polyreactivity
QDQLVESGGGLVQAGGSLRLSCAASGFTFVRYAMVWYRQAPGKERELVAAISSSGGSTYYADSVKGRFTISRDNAKNTVYLQMNSLKPEDTAVYYCADGPFYRFTDGRYKSLDYCGQGTQVTVSS	high polyreactivity
QDQLVESGGGLVQAGGSLRLSCAASGFTFYLYAMGWYRQAPGKERELVAAINGGGSSTYYADSVKGRFTISRDNAKTTVYLEMNSLKPEDTAVYYCNAVYYVVYVKEFDYWGQGTQVTVSS	high polyreactivity
QDQLVESGGGLVQAGGSLRLSCAASGFTFYPYAMGWYRQAAGKERELVASITNGGSTNYADSVKGRFTISRDNAKNTVYLQMNSLKPEDTAVYYCNAAYGFYASRYWYASYDYWGQGTQVTVSS	low polyreactivity
QDQLVESGGGLVQAGGSLRLSCAASGFTFYQYAMGLYIQAPGKERELVASITWNGGSTFYADSVKGRFTISRDNAKNTVYFQMNSLKPEDTAVYYCNVAYVYGSFRRRPMGYWGQGTQVTVSS	high polyreactivity
QDQLVESGGGLVQAGGSLRLSCAASGGIFPAYAMGWYSQAPGKERELVASISANGGRTYYADSVKGRFTISRDNAKNTVYLQMNSLKPEDTAVYYCNKRWLHWSGYDYWGQGTQVTVSS	high polyreactivity
QDQLVESGGGLVQAGGSLRLSCAASGGTFGLNAMGWYRQAPGKERELVADIDGRGGCTYYADSVKGRFTISRDNAQNTVYLQMNSLKPEDTAVYYCAARAPFLSVPTELDYWGQGTQVSVSS	low polyreactivity
QDQLVESGGGLVQAGGSLRLSCAASGIIFAWYVMGWYRQAPGKERELVATITSSGGRTYYADSVKGRFTISRDNAKNTVYLQMNSLKPEDTAVYYCNAALTRAFKHSTGYDYWGQGTQVTVSS	low polyreactivity
QDQLVESGGGLVQAGGSLRLSCAASGIIFDYYAMGWYRQAPGKERELVASISWSGGGTYYADSVKGRFTISRDNAKNTVYLQMNSLKAEDTAVYYCAADGSTVNAPRWSDPYDYWGQGTQVTVSS	low polyreactivity
QDQLVESGGGLVQAGGSLRLSCAASGIIFYDYAMGWYRQAPGKERELVAAITSNGDNTYYADSVKGRFTISRDNAKNTVYLQMNSLKPEDTAGYYCAVDGSFAADFDNYLEEYGYWGQGTQVTVSS	low polyreactivity
QDQLVESGGGLVQAGGSLRLSCAASGIILRYYVMGWYRQAPGKERELVAAITSRGGSTYYADSVKGRFTISRDNAKNTVYLQMNSLKPEDTAVYYCAAGYRNVNTFDYWGQGTQVTVSS	high polyreactivity
QDQLVESGGGLVQAGGSLRLSCAASGILDRYAMGWYRQAHGKERELFAAISYIAGSTYYADSVKGRFTISRDNAKNTVYLQLNSLKPEVTAVYYCAARGFGTVNGKLYGYWGQGTQVTVSS	high polyreactivity
QDQLVESGGGLVQAGGSLRLSCAASGITFAYYVMGWYRQATGKERELVAAISRSGSTYYADSVKGRFTISRDNAKNTVYLQMNSLKPEDTAVNYCAVLYIRWYTYEYWGQGTQVTVSS	high polyreactivity
QDQLVESGGGLVQAGGSLRLSCAASGITFSGNAKGCYRQAPGKETELVAAISRNGGRTYYADSVKGRFTISRDNAKNTVYLQMNSLKQEDTAVYYCAKDAYGYFRVSAWYYTYDYWGQGTQVTVSS	high polyreactivity
QDQLVESGGGLVQAGGSLRLSCAASGITIYRYVMGCSRQAPGKEREFVASITQSTGSTHYADSVKGRFTISRDNAKNTVYLQMNSLKPEDTAVYYCNAQKIVYYWVTLFPYYYWGQGTQVTVSS	low polyreactivity
QDQLVESGGGLVQAGGSLRLSCAASGLIFFFYPMGWYRQAPGKERELVASISGGGITYYADSVKGRFTISRDNAKNTVYLQMNSLKQEDTPVIKNDYWGQGTQVTLSS	low polyreactivity
QDQLVESGGGLVQAGGSLRLSCAASGLSFASYVMGWYRQAPGKERELVAAISSSGDSTYYADSVKGRFTLSRDNAKNTVYLQMNSLKPEDTAVYYCAAKDYVWGQGTQVTVSS	low polyreactivity
QDQLVESGGGLVQAGGSLRLSCAASGLTFKRNAMGWYRQAPVKERELVAAIRYSTDSTNYADSVKGRFTISRDNAKNTVYLQLNSMNPEDTAVYYCAKDKQDYEYWGQGTQVTVSS	low polyreactivity
QDQLVESGGGLVQAGGSLRLSCAASGLTFLWYNMGWYRPAPGKERELVAGITWSGGSTYYADSVKGRFTISRDNAKNTVYLQMNSLKPEDTAVYYCAASFLWKVTGEYYYWGQGTQVTVSS	high polyreactivity
